Key:
Test in all cases: Esterase substrate specificity, fluorogenic SAR library kinetics
Format in all cases: biochemical, Staphylococcus aureus
Conditions in all cases: other: SaGloB, fluorogenic ester substrate; pH 7.5; 37.0 °C
[1] = substrate: CSC(C)C(=O)OCOc1ccc2c(c1)Oc1cc(OCOC(=O)C(C)SC)ccc1C21OC(=O)c2ccccc21
Method: (§1) Kinetic measurements were performed according to [White et al., 2018] with minor variation. Lyophilized human and mouse sera were resuspended according to manufacturer instructions in highly pure, filtered water at protein concentrations of 85 mg/mL and 70 mg/mL, respectively. One milliliter of resuspended serum was added to a 24 mL mastermix for a final concentration of 31.25 mM Tris pH 7.5, 312.5 mM NaCl, 1.25 mM MgCl2, 12.5% glycerol, and 3.4 mg/mL or 2.8 mg/mL protein for human and mouse serum, respectively. For purified proteins, 5 mL of a 75 µg/mL stock was added to yield a 20 mL mastermix containing 31.25 mM Tris pH 7.5, 312.5 mM NaCl, 1.25 mM MgCl2, 12.5% glycerol, and 18.75 µg/mL protein. Mastermix was stored on ice when not in use. Twenty microliters of mastermix was transferred to a black, 96-well half area microplate (Corning, CLS3993) and prewarmed at 37°C. Fluorogenic substrates were prepared as 10 mM stock solutions in 100% DMSO and were diluted in water to a starting concentration of 500 µM. Enzyme catalyzed substrate hydrolysis was initiated by addition of 5 µL substrate dilution in technical duplicate to the prewarmed serum or protein solution. Final assay concentrations were as follows: 25 mM Tris pH 7.5, 250 mM NaCl, 1 mM MgCl2, 10% glycerol, and protein at a concentration of 2.72 mg/mL (human serum), 2.24 mg/mL (mouse serum), or 15 µg/mL (FrmB, GloB). The resulting change in fluorescence (λex = 485 nm, λem = 520 nm) was followed for 15 min at 37°C, collecting data every 30 s on a FLUOstar Omega microplate reader (BMG Labtech). Fluorescence measurements were converted to molar concentrations using a fluorescein standard curve (2.5 nmol–0.6 pmol). The initial rates of reaction were measured three independent times with two technical replicates per measurement and fit to a line using GraphPad Prism (GraphPad Software, La Jolla, CA). Initial rates of reaction were plotted versus the concentration of substrate and fit to a standard Michaelis–Menten equation (v = Vmax[S]/(Km + [S])), yielding estimates of Vmax and Km. Values for kcat and kcat/Km were calculated based on amount of enzyme added when purified enzymes were used.

[2] = substrate: CCC(OC)C(=O)OCOc1ccc2c(c1)Oc1cc(OCOC(=O)C(CC)OC)ccc1C21OC(=O)c2ccccc21
Method: as §1

[3] = substrate: COCC(=O)OCOc1ccc2c(c1)Oc1cc(OCOC(=O)COC)ccc1C21OC(=O)c2ccccc21
Method: as §1

[4] = substrate: COCCC(=O)OCOc1ccc2c(c1)Oc1cc(OCOC(=O)CCOC)ccc1C21OC(=O)c2ccccc21
Method: as §1

[5] = substrate: CCCCC(=O)OCOc1ccc2c(c1)Oc1cc(OCOC(=O)CCCC)ccc1C21OC(=O)c2ccccc21
Method: as §1

[6] = substrate: CSCC(=O)OCOc1ccc2c(c1)Oc1cc(OCOC(=O)CSC)ccc1C21OC(=O)c2ccccc21
Method: as §1

[7] = substrate: CC(C)OCC(=O)OCOc1ccc2c(c1)Oc1cc(OCOC(=O)COC(C)C)ccc1C21OC(=O)c2ccccc21
Method: as §1

[8] = substrate: CCCOCC(=O)OCOc1ccc2c(c1)Oc1cc(OCOC(=O)COCCC)ccc1C21OC(=O)c2ccccc21
Method: as §1

[9] = substrate: CCCC(=O)OCOc1ccc2c(c1)Oc1cc(OCOC(=O)CCC)ccc1C21OC(=O)c2ccccc21
Method: as §1

[10] = substrate: CCCC(C)C(=O)OCOc1ccc2c(c1)Oc1cc(OCOC(=O)C(C)CCC)ccc1C21OC(=O)c2ccccc21
Method: as §1

[11] = substrate: C=CCOC(C)C(=O)OCOc1ccc2c(c1)Oc1cc(OCOC(=O)C(C)OCC=C)ccc1C21OC(=O)c2ccccc21
Method: as §1

[12] = substrate: CCSC(C)C(=O)OCOc1ccc2c(c1)Oc1cc(OCOC(=O)C(C)SCC)ccc1C21OC(=O)c2ccccc21
Method: as §1

[13] = substrate: CCOCC(=O)OCOc1ccc2c(c1)Oc1cc(OCOC(=O)COCC)ccc1C21OC(=O)c2ccccc21
Method: as §1

B1: SaGloB (Staphylococcus aureus subsp. aureus str. Newman) (protein)
chain: MRISSLTLGLVDTNTYFIENDKAVILIDPSGESEKIIKKLNQINKPLKAILLTHAHFDHIGAVDDIVDRFDVPVYMHEAEFDFLKDPVKNGADKFKQYGLPIITSKVTPEKLNEGSTEIEGFKFNVLHTPGHSPGSLTYVFDEFAVVGDTLFNNGIGRTDLYKGDYETLVDSIQDKIFELEGDLPLFPGHGPYTTVDDEQLNPFLHG
[1]
  Km: 49.5 µM
  Vmax: 0.722 pmol*min-1*μg protein-1
  kcat: 0.108 10-3 s-1
  kcat/Km: 2.18 M⁻¹ s⁻¹
[2]
  Km: 55.5 µM
  Vmax: 2.54 pmol*min-1*μg protein-1
  kcat: 0.380 10-3 s-1
  kcat/Km: 6.84 M⁻¹ s⁻¹
[3]
  Km: 73.5 µM
  Vmax: 217 pmol*min-1*μg protein-1
  kcat: 32.5 10-3 s-1
  kcat/Km: 442 M⁻¹ s⁻¹
[4]
  Km: 18.0 µM
  Vmax: 1.39 pmol*min-1*μg protein-1
  kcat: 0.208 10-3 s-1
  kcat/Km: 11.5 M⁻¹ s⁻¹
[5]
  Km: 18.33 µM
  Vmax: 0.292 pmol*min-1*μg protein-1
  kcat: 0.0436 10-3 s-1
  kcat/Km: 2.38 M⁻¹ s⁻¹
[6]
  Km: 32.49 µM
  Vmax: 14.9 pmol*min-1*μg protein-1
  kcat: 2.22 10-3 s-1
  kcat/Km: 68.4 M⁻¹ s⁻¹
[7]
  Km: 12.0 µM
  Vmax: 2.91 pmol*min-1*μg protein-1
  kcat: 0.435 10-3 s-1
  kcat/Km: 36.1 M⁻¹ s⁻¹
[8]
  Km: 8.41 µM
  Vmax: 4.21 pmol*min-1*μg protein-1
  kcat: 0.630 10-3 s-1
  kcat/Km: 74.8 M⁻¹ s⁻¹
[9]
  Km: 6.23 µM
  Vmax: 0.497 pmol*min-1*μg protein-1
  kcat: 0.0744 10-3 s-1
  kcat/Km: 11.9 M⁻¹ s⁻¹
[10]
  Km: 84.89 µM
  Vmax: 0.351 pmol*min-1*μg protein-1
  kcat: 0.0524 10-3 s-1
  kcat/Km: 0.618 M⁻¹ s⁻¹
[11]
  Km: 36.91 µM
  Vmax: 1.04 pmol*min-1*μg protein-1
  kcat: 0.156 10-3 s-1
  kcat/Km: 4.21 M⁻¹ s⁻¹
[12]
  Km: 79.8 µM
  Vmax: 1.02 pmol*min-1*μg protein-1
  kcat: 0.153 10-3 s-1
  kcat/Km: 1.92 M⁻¹ s⁻¹
[13]
  Km: 42.0 µM
  Vmax: 46.4 pmol*min-1*μg protein-1
  kcat: 6.93 10-3 s-1
  kcat/Km: 165 M⁻¹ s⁻¹
